Laboratory results reported in patent publication US20110010786A1 (published 2011).

Target: T1, human factor VIII (human, UniProt P00451 20-2351)
T1 construct: also called FVIII
Assay: Surface Plasmon Resonance

T1 sequence (P00451 20-2351 limits assumed): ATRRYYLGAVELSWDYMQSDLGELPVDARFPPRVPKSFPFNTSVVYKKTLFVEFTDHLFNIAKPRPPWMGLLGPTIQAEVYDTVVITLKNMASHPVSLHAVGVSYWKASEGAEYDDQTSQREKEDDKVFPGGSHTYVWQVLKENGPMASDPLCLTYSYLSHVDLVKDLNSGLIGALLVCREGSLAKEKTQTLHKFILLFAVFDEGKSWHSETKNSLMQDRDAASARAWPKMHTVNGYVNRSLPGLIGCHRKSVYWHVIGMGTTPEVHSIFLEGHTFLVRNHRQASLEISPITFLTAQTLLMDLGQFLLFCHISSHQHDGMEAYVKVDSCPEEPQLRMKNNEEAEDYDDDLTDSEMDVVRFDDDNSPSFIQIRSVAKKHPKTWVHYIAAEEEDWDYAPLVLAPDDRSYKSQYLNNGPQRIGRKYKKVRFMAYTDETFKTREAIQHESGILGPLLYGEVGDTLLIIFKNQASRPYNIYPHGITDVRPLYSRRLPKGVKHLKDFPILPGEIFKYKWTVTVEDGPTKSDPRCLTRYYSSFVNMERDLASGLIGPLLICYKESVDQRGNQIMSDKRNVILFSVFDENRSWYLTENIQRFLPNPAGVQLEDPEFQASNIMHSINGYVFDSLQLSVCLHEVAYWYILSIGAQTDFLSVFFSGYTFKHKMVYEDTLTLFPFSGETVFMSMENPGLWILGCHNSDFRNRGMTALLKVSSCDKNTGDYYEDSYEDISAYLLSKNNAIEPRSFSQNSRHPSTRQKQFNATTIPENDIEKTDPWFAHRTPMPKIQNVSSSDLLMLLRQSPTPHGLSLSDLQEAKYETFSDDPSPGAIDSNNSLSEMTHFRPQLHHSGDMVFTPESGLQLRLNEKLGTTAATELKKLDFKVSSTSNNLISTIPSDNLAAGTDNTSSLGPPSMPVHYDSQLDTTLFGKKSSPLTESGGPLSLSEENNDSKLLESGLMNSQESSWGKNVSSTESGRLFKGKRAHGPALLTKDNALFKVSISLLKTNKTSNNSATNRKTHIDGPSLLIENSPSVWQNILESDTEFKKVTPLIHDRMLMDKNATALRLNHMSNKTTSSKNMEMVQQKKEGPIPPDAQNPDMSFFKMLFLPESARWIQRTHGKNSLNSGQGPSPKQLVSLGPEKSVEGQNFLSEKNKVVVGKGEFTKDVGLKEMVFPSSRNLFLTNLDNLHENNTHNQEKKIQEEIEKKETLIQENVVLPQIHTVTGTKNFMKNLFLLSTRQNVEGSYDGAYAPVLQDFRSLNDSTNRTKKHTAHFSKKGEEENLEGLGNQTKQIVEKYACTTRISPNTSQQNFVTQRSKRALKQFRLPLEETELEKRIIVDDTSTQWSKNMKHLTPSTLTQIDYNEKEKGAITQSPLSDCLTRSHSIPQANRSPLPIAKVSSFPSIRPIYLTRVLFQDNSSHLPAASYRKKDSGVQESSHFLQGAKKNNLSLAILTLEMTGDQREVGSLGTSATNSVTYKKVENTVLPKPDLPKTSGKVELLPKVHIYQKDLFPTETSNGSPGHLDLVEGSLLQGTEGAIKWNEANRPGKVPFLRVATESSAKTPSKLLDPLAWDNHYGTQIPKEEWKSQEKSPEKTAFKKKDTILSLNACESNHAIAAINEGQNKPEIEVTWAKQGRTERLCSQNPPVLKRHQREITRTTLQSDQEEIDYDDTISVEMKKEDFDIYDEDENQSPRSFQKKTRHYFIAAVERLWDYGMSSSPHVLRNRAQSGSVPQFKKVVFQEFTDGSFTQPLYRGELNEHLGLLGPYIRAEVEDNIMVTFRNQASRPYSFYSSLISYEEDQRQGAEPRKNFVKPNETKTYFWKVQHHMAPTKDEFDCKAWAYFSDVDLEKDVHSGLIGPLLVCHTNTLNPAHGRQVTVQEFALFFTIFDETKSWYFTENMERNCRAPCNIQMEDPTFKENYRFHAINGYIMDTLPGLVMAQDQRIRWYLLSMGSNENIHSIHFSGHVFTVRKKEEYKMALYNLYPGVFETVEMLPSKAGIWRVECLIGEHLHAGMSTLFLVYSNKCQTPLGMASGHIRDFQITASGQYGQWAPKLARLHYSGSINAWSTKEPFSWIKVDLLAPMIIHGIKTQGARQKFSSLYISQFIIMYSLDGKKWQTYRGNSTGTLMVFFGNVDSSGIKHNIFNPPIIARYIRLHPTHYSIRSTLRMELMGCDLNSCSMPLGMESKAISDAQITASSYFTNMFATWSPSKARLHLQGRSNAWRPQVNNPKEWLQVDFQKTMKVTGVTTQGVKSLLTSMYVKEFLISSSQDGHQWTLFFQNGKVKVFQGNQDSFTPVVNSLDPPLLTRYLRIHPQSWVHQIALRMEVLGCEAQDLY

- koff: ≤ 1e-05 s⁻¹
B1: human monoclonal antibody BO2C11 (antibody, V domains shown)
VH: QVQLVQSGAEVKKPGASVKVSCKVSGYTLTELPVHWVRQAPGKGLEWVGSFDPESGESIYAREFQGSVTMTADTSTDIAYMELSSLRSDDTAVYYCAVPDPDAFDIWGQGTMVTVSS
VL: EIALTQSPGTLSLSPGERATLSCRASQSFSSSYLAWYQQKPGQAPRLLIYGASTRATGIPDRFSGSGSGTDFTLTISRLEPEDFAVYYCQKYGTSAITFGQGTRLEIK
notes: also called B02C11
